Assay results as given in article PMC12102759 (2025).

B1: SH3BP2 peptide 410-425 (SH3 domain-binding protein 2), 16-mer library wild type / TNKS ANK (TNKS 12 ANK repeats, residues 174-649) (parent complex)
chain 1: LPHLQRSPPDGQSFRS
chain 2: TGVPAVSGALRELLEACRNGDVSRVKRLVDAANVNAKDMAGRKSSPLHFAAGFGRKDVVEHLLQMGANVHARDDGGLIPLHNACSFGHAEVVSLLLCQGADPNARDNWNYTPLHEAAIKGKIDVCIVLLQHGADPNIRNTDGKSALDLADPSAKAVLTGEYKKDELLEAARSGNEEKLMALLTPLNVNCHASDGRKSTPLHLAAGYNRVRIVQLLLQHGADVHAKDKGGLVPLHNACSYGHYEVTELLLKHGACVNAMDLWQFTPLHEAASKNRVEVCSLLLSHGADPTLVNCHGKSAVDMAPTPELRERLTYEFKGHSLLQAAREADLAKVKKTLALEIINFKQPQSHETALHCAVASLHPKRKQVTELLLRKGANVNEKNKDFMTPLHVAAERAHNDVMEVLHKHGAKMNALDTLGQTALHRAALAGHLQTCRLLLSYGSDPSIISLQGFTAAQMGNEAVQQILSESTPIRTSD

Variants of: B1
Test: proteomic peptide phage display deep mutational scan (ProP-PD DMS): M13 P8 16-mer library selected against immobilised GST-tagged bait for four days (rounds), NGS of the eluted pools per day and pseudo-replica; bait immobilised on MaxiSorp plates (10 µg), library pre-cleared on GST, 2 h binding at 4 °C, five washes; one round per day, days 1-4; value from days 2 and 3

Variant | screen value
chain 1 R15W | 0.000302 average fractional NGS count over selection days 2 and 3 (reads of this peptide / all reads for the bait, averaged over …
chain 1 L4H | 0.000978 average fractional NGS count over selection days 2 and 3 (reads of this peptide / all reads for the bait, averaged over …
chain 1 L1H | 0.00559 average fractional NGS count over selection days 2 and 3 (reads of this peptide / all reads for the bait, averaged over …
chain 1 F14E | 0.00017 average fractional NGS count over selection days 2 and 3 (reads of this peptide / all reads for the bait, averaged over …
chain 1 H3I | 0.000522 average fractional NGS count over selection days 2 and 3 (reads of this peptide / all reads for the bait, averaged over …
chain 1 S7Q | 0.00222 average fractional NGS count over selection days 2 and 3 (reads of this peptide / all reads for the bait, averaged over …
chain 1 P2T | 0.00034 average fractional NGS count over selection days 2 and 3 (reads of this peptide / all reads for the bait, averaged over …
chain 1 F14N | 0.000125 average fractional NGS count over selection days 2 and 3 (reads of this peptide / all reads for the bait, averaged over …
chain 1 Q12S | 0.000969 average fractional NGS count over selection days 2 and 3 (reads of this peptide / all reads for the bait, averaged over …
chain 1 Q12W | 0.000548 average fractional NGS count over selection days 2 and 3 (reads of this peptide / all reads for the bait, averaged over …
chain 1 Q5W | 0.000468 average fractional NGS count over selection days 2 and 3 (reads of this peptide / all reads for the bait, averaged over …
chain 1 L1V | 0.00338 average fractional NGS count over selection days 2 and 3 (reads of this peptide / all reads for the bait, averaged over …
chain 1 L1Y | 0.00138 average fractional NGS count over selection days 2 and 3 (reads of this peptide / all reads for the bait, averaged over …
chain 1 H3W | 0.000238 average fractional NGS count over selection days 2 and 3 (reads of this peptide / all reads for the bait, averaged over …
chain 1 L1N | 0.0011 average fractional NGS count over selection days 2 and 3 (reads of this peptide / all reads for the bait, averaged over …
chain 1 S13E | 0.00174 average fractional NGS count over selection days 2 and 3 (reads of this peptide / all reads for the bait, averaged over …
chain 1 R15F | 0.000621 average fractional NGS count over selection days 2 and 3 (reads of this peptide / all reads for the bait, averaged over …
chain 1 Q12G | 0.000919 average fractional NGS count over selection days 2 and 3 (reads of this peptide / all reads for the bait, averaged over …
chain 1 H3F | 0.000397 average fractional NGS count over selection days 2 and 3 (reads of this peptide / all reads for the bait, averaged over …
chain 1 Q12M | 0.00481 average fractional NGS count over selection days 2 and 3 (reads of this peptide / all reads for the bait, averaged over …
chain 1 D10V | 0.00049 average fractional NGS count over selection days 2 and 3 (reads of this peptide / all reads for the bait, averaged over …
chain 1 L4M | 0.0015 average fractional NGS count over selection days 2 and 3 (reads of this peptide / all reads for the bait, averaged over …
chain 1 L4F | 0.00253 average fractional NGS count over selection days 2 and 3 (reads of this peptide / all reads for the bait, averaged over …
chain 1 L4Q | 0.000264 average fractional NGS count over selection days 2 and 3 (reads of this peptide / all reads for the bait, averaged over …
chain 1 L1E | 0.00294 average fractional NGS count over selection days 2 and 3 (reads of this peptide / all reads for the bait, averaged over …

Variant | screen value
chain 1 S13F | 0.000366 average fractional NGS count over selection days 2 and 3 (reads of this peptide / all reads for the bait, averaged over …
chain 1 F14Q | 0.000155 average fractional NGS count over selection days 2 and 3 (reads of this peptide / all reads for the bait, averaged over …
chain 1 S13V | 0.00486 average fractional NGS count over selection days 2 and 3 (reads of this peptide / all reads for the bait, averaged over …
chain 1 P9A | 0.00156 average fractional NGS count over selection days 2 and 3 (reads of this peptide / all reads for the bait, averaged over …
chain 1 H3Q | 0.000537 average fractional NGS count over selection days 2 and 3 (reads of this peptide / all reads for the bait, averaged over …
chain 1 S13P | 0.00144 average fractional NGS count over selection days 2 and 3 (reads of this peptide / all reads for the bait, averaged over …
chain 1 H3N | 0.000146 average fractional NGS count over selection days 2 and 3 (reads of this peptide / all reads for the bait, averaged over …
chain 1 P8D | 0.00888 average fractional NGS count over selection days 2 and 3 (reads of this peptide / all reads for the bait, averaged over …
chain 1 L4Y | 0.000355 average fractional NGS count over selection days 2 and 3 (reads of this peptide / all reads for the bait, averaged over …
chain 1 D10P | 0.00059 average fractional NGS count over selection days 2 and 3 (reads of this peptide / all reads for the bait, averaged over …
chain 1 H3M | 0.0014 average fractional NGS count over selection days 2 and 3 (reads of this peptide / all reads for the bait, averaged over …
chain 1 P9S | 0.000178 average fractional NGS count over selection days 2 and 3 (reads of this peptide / all reads for the bait, averaged over …
chain 1 Q5H | 0.0031 average fractional NGS count over selection days 2 and 3 (reads of this peptide / all reads for the bait, averaged over …
chain 1 L1F | 0.000588 average fractional NGS count over selection days 2 and 3 (reads of this peptide / all reads for the bait, averaged over …
chain 1 Q5N | 0.000679 average fractional NGS count over selection days 2 and 3 (reads of this peptide / all reads for the bait, averaged over …
chain 1 Q5G | 0.00123 average fractional NGS count over selection days 2 and 3 (reads of this peptide / all reads for the bait, averaged over …
chain 1 L1S | 0.00146 average fractional NGS count over selection days 2 and 3 (reads of this peptide / all reads for the bait, averaged over …
chain 1 Q5M | 0.00158 average fractional NGS count over selection days 2 and 3 (reads of this peptide / all reads for the bait, averaged over …
chain 1 S7M | 0.00193 average fractional NGS count over selection days 2 and 3 (reads of this peptide / all reads for the bait, averaged over …
chain 1 R15Q | 0.000422 average fractional NGS count over selection days 2 and 3 (reads of this peptide / all reads for the bait, averaged over …
chain 1 Q5L | 0.000257 average fractional NGS count over selection days 2 and 3 (reads of this peptide / all reads for the bait, averaged over …
chain 1 S7F | 0.00476 average fractional NGS count over selection days 2 and 3 (reads of this peptide / all reads for the bait, averaged over …
chain 1 R15T | 0.00759 average fractional NGS count over selection days 2 and 3 (reads of this peptide / all reads for the bait, averaged over …
chain 1 S7N | 0.00621 average fractional NGS count over selection days 2 and 3 (reads of this peptide / all reads for the bait, averaged over …
chain 1 L4P | 0.00111 average fractional NGS count over selection days 2 and 3 (reads of this peptide / all reads for the bait, averaged over …

Variant | screen value
chain 1 P8T | 0.00538 average fractional NGS count over selection days 2 and 3 (reads of this peptide / all reads for the bait, averaged over …
chain 1 L1K | 0.000567 average fractional NGS count over selection days 2 and 3 (reads of this peptide / all reads for the bait, averaged over …
chain 1 P8V | 0.00324 average fractional NGS count over selection days 2 and 3 (reads of this peptide / all reads for the bait, averaged over …
chain 1 S7H | 0.000827 average fractional NGS count over selection days 2 and 3 (reads of this peptide / all reads for the bait, averaged over …
chain 1 F14H | 0.000634 average fractional NGS count over selection days 2 and 3 (reads of this peptide / all reads for the bait, averaged over …
chain 1 P2H | 0.000416 average fractional NGS count over selection days 2 and 3 (reads of this peptide / all reads for the bait, averaged over …
chain 1 Q12V | 0.000654 average fractional NGS count over selection days 2 and 3 (reads of this peptide / all reads for the bait, averaged over …
chain 1 S7V | 0.00627 average fractional NGS count over selection days 2 and 3 (reads of this peptide / all reads for the bait, averaged over …
chain 1 L4W | 0.00434 average fractional NGS count over selection days 2 and 3 (reads of this peptide / all reads for the bait, averaged over …
chain 1 L1A | 0.00143 average fractional NGS count over selection days 2 and 3 (reads of this peptide / all reads for the bait, averaged over …
chain 1 L4N | 0.000501 average fractional NGS count over selection days 2 and 3 (reads of this peptide / all reads for the bait, averaged over …
chain 1 L4G | 0.000123 average fractional NGS count over selection days 2 and 3 (reads of this peptide / all reads for the bait, averaged over …
chain 1 S13H | 0.00169 average fractional NGS count over selection days 2 and 3 (reads of this peptide / all reads for the bait, averaged over …
chain 1 P2M | 0.000224 average fractional NGS count over selection days 2 and 3 (reads of this peptide / all reads for the bait, averaged over …
chain 1 P8N | 0.0021 average fractional NGS count over selection days 2 and 3 (reads of this peptide / all reads for the bait, averaged over …
chain 1 L4S | 0.000672 average fractional NGS count over selection days 2 and 3 (reads of this peptide / all reads for the bait, averaged over …
chain 1 P8H | 0.000697 average fractional NGS count over selection days 2 and 3 (reads of this peptide / all reads for the bait, averaged over …
chain 1 P2D | 0.00379 average fractional NGS count over selection days 2 and 3 (reads of this peptide / all reads for the bait, averaged over …
chain 1 R15P | 0.00212 average fractional NGS count over selection days 2 and 3 (reads of this peptide / all reads for the bait, averaged over …
chain 1 F14D | 0.000786 average fractional NGS count over selection days 2 and 3 (reads of this peptide / all reads for the bait, averaged over …
chain 1 Q12E | 0.000127 average fractional NGS count over selection days 2 and 3 (reads of this peptide / all reads for the bait, averaged over …
chain 1 Q12T | 0.00582 average fractional NGS count over selection days 2 and 3 (reads of this peptide / all reads for the bait, averaged over …
chain 1 L4T | 0.000821 average fractional NGS count over selection days 2 and 3 (reads of this peptide / all reads for the bait, averaged over …
chain 1 F14S | 0.00286 average fractional NGS count over selection days 2 and 3 (reads of this peptide / all reads for the bait, averaged over …
chain 1 F14A | 0.0212 average fractional NGS count over selection days 2 and 3 (reads of this peptide / all reads for the bait, averaged over …
